Results on ten molecules are retold here after US20030166571A1 (SYNVAX, published 2003).

Square brackets hold non-standard residues; d marks the D form. Ends that are not written are not given here. * marks the point of attachment. Phe(4-SO3H) = N[C@@H](Cc1ccc(S(=O)(=O)O)cc1)C(=O)O; Phe(4-Me) = Cc1ccc(C[C@H](N)C(=O)O)cc1; Phg = N[C@H](C(=O)O)c1ccccc1; Ac6c = NC1(C(=O)O)CCCCC1; Pentanoyl = CCCCC(=O)* Bounds are passed on as bounds.

Experiment [1] has as its target T1, human ORL-1 receptor (opioid receptor like 1) (human, UniProt P41146 1-370).
T1 construct: whole, on cells; Assays were run on membranes of CHO cells transfected with human ORL-1; also called opiate receptor like 1; nociceptin receptor
The experiment can be described thus: [3H]nociceptin displacement, membranes of CHO cells transfected with human ORL-1; Ki=IC50/(1+L/Kd). How it is done: Receptor binding studies were conducted on human ORL1 (opiate receptor like 1) transfected into Chinese hamster ovary (CHO) cells using each of the hexapeptide analog compounds of Table 3. All the compounds were evaluated for binding affinities. […] The data shown in Table 5 represents the average±SEM of at least two experiments conducted in triplicate.
Cells are removed from the plates by scraping with a rubber policeman, and then homogenized in Tris buffer using a Polytron homogenizer. Following this homogenization step, the cellular mixture is centrifuged once and washed by an additional centrifugation at 40,000×g for 15 min. The pellet formed during the centrifugation is re-suspended in 50 mM Tris, pH 7.5. […] Samples of the suspension are then filtered over glass fiber filters using a Wallac cell harvester.
For the data in Table 5, binding was conducted as described above. IC₅₀ values and Hill coefficients were determined using the curve-fitting program Prism. K₁ values were calculated using the equation K₁=IC₅₀/(1+[L]/Kd). […] The data in Table 5 represent the average±SEM of at least two experiments conducted in triplicate.

The target of experiment [2] is T1, human ORL-1 receptor (opioid receptor …). As to the kind of experiment: cell-based or functional assay.

T1 sequence (P41146 whole entry): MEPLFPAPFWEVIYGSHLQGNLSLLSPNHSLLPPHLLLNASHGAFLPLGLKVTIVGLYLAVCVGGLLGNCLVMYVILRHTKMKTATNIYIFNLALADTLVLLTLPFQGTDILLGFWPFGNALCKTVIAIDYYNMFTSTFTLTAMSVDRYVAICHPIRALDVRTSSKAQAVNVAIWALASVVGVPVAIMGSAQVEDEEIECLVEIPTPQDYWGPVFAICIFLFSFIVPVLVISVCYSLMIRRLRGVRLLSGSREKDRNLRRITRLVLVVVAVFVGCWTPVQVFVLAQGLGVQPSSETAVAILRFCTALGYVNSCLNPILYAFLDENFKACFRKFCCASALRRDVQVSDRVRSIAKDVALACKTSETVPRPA

B1: VII-2-A (peptide)
peptide: {β‑Nva}-RYYRWR-NH2
notes: also called β-Nva-Arg-Tyr-Tyr-Arg-Trp-Arg-NH2
A word on the Ki: it is a dissociation constant, usually derived from enzyme kinetics or from competition with a known ligand. Lower therefore signals a stronger hold on the target. In experiment [1], B1 gave a Ki of 11.8 nM. The “% Stimulation of [35S]GTPγS binding” value in experiment [2] was below 20%.

B2: VII-7-B (peptide)
peptide: Pentanoyl-RYYRWR-NH2
SMILES: CCCCC(=O)N[C@@H](CCCNC(=N)N)C(=O)N[C@@H](Cc1ccc(O)cc1)C(=O)N[C@@H](Cc1ccc(O)cc1)C(=O)N[C@@H](CCCNC(=N)N)C(=O)N[C@@H](Cc1c[nH]c2ccccc12)C(=O)N[C@@H](CCCNC(=N)N)C(N)=O
notes: also called Pentanoyl-Arg-Tyr-Tyr-Arg-Trp-Arg-NH2; Pentanoyl-RYYRWR-NH2
In turn, B2 had a Ki in experiment [1] of 0.16 nM. Further, the “% Stimulation of [35S]GTPγS binding” value in experiment [2] was below 20%.

B3: VII-17-B (peptide)
peptide: Ac-R[Phe(4-Me)][Phe(4-Me)]RWR-NH2
SMILES: CC(=O)N[C@@H](CCCNC(=N)N)C(=O)N[C@@H](Cc1ccc(C)cc1)C(=O)N[C@@H](Cc1ccc(C)cc1)C(=O)N[C@@H](CCCNC(=N)N)C(=O)N[C@@H](Cc1c[nH]c2ccccc12)C(=O)N[C@@H](CCCNC(=N)N)C(N)=O
notes: also called Ac-Arg-Phe(4-Me)-Phe(4-Me)-Arg-Trp-Arg-NH2
The molecule B3 returned a Ki in experiment [1] of 10.1 nM. For the same molecule, in experiment [2], the “% Stimulation of [35S]GTPγS binding” value was below 20%.

B4: VII-11-B (peptide)
peptide: Ac-R[Phg][Phg]RWR-NH2
SMILES: CC(=O)N[C@@H](CCCNC(=N)N)C(=O)N[C@H](C(=O)N[C@H](C(=O)N[C@@H](CCCNC(=N)N)C(=O)N[C@@H](Cc1c[nH]c2ccccc12)C(=O)N[C@@H](CCCNC(=N)N)C(N)=O)c1ccccc1)c1ccccc1
notes: also called Ac-Arg-Phg-Phg-Arg-Trp-Arg-NH2
Molecule B4 returned an inhibitory constant (Ki) in experiment [1] of 30.4 nM.

B5: VII-15-B (peptide)
peptide: Ac-R[Phe(4-Me)]YRWR-NH2
SMILES: CC(=O)N[C@@H](CCCNC(=N)N)C(=O)N[C@@H](Cc1ccc(C)cc1)C(=O)N[C@@H](Cc1ccc(O)cc1)C(=O)N[C@@H](CCCNC(=N)N)C(=O)N[C@@H](Cc1c[nH]c2ccccc12)C(=O)N[C@@H](CCCNC(=N)N)C(N)=O
notes: also called Ac-Arg-Phe(4-Me)-Tyr-Arg-Trp-Arg-NH2
Consider B5, for which, in experiment [1], the Ki amounted to 0.48 nM. Moreover, in experiment [2], the “% Stimulation of [35S]GTPγS binding” value stood at 59.8% and the “EC50 (nM) of stimulation of [35S]GTPγS binding” value was 18.8 nM.

B6: VII-4-B (peptide)
peptide: [Ac6c]RYYRWR-NH2
modifications: N-terminus assumed
SMILES: N=C(N)NCCC[C@H](NC(=O)[C@H](Cc1c[nH]c2ccccc12)NC(=O)[C@H](CCCNC(=N)N)NC(=O)[C@H](Cc1ccc(O)cc1)NC(=O)[C@H](Cc1ccc(O)cc1)NC(=O)[C@H](CCCNC(=N)N)NC(=O)C1(N)CCCCC1)C(N)=O
notes: also called 1-aminocyclohexanoyl-Arg-Tyr-Tyr-Arg-Trp-Arg-NH2
Regarding B6, in experiment [1], the Ki was determined as 9.25 nM. Also, in experiment [2], the “% Stimulation of [35S]GTPγS binding” value was below 20%.

B7: VII-3-A (peptide)
peptide: {β‑aminoisobutryl}-RYYRWR-NH2
notes: also called β-aminoisobutryl-Arg-Tyr-Tyr-Arg-Trp-Arg-NH2
The molecule B7 yielded a Ki in experiment [1] of 1.18 nM. For the same molecule, in experiment [2], the “% Stimulation of [35S]GTPγS binding” value turned out to be 29.1% and the “EC50 (nM) of stimulation of [35S]GTPγS binding” value stood at 68 nM.

B8: VII-1-A (peptide)
peptide: Nipacotyl-RYYRWR-NH2
notes: also called Nipacotyl-Arg-Tyr-Tyr-Arg-Trp-Arg-NH2
In turn, B8 returned a Ki in experiment [1] of 30.3 nM. In addition, in experiment [2], the “% Stimulation of [35S]GTPγS binding” value is below 20%.

B9: VII-13-B (peptide)
peptide: Ac-RY[Phg]RWR-NH2
SMILES: CC(=O)N[C@@H](CCCNC(=N)N)C(=O)N[C@@H](Cc1ccc(O)cc1)C(=O)N[C@H](C(=O)N[C@@H](CCCNC(=N)N)C(=O)N[C@@H](Cc1c[nH]c2ccccc12)C(=O)N[C@@H](CCCNC(=N)N)C(N)=O)c1ccccc1
notes: also called Ac-Arg-Tyr-Phg-Arg-Trp-Arg-NH2
With B9, in experiment [1], the affinity corresponds to a Ki of 27 nM.

B10: VII-27-B (peptide)
peptide: Ac-R[Phe(4-SO3H)]YRWR-NH2
notes: also called Ac-Arg-Phe(SO3H)-Tyr-Arg-Trp-Arg-NH2
In experiment [1], B10 came in with a Ki of 155 nM.
